Laboratory results as given in US11497796B2, “Agents directed against a cis RGMa/neogenin interaction or lipid rafts and use of the same in methods of treatment” (UNIVERSITY HEALTH NETWORK, priority 2013, dated 2022).

T1: 4Ig-domain of Neogenin (His-4Ig) (Gallus gallus, UniProt Q90610)
T1 construct: 6-His (N); myc (C); 6-His (C); made in house
T1 sequence (Q90610 1-383): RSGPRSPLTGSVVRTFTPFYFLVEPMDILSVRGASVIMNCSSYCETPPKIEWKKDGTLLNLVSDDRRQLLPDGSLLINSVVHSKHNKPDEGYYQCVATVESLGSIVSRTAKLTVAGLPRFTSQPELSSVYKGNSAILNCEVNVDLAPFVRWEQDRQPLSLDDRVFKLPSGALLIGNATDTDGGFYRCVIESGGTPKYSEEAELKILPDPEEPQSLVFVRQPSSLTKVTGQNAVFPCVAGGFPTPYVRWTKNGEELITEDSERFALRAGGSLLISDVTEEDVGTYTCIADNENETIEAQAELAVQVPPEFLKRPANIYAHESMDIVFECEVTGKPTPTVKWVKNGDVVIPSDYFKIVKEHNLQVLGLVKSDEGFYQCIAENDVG

T2: 4Ig-domain of Neogenin (Gallus gallus, UniProt Q90610)
T2 construct: made in house
T2 sequence (Q90610 1-383): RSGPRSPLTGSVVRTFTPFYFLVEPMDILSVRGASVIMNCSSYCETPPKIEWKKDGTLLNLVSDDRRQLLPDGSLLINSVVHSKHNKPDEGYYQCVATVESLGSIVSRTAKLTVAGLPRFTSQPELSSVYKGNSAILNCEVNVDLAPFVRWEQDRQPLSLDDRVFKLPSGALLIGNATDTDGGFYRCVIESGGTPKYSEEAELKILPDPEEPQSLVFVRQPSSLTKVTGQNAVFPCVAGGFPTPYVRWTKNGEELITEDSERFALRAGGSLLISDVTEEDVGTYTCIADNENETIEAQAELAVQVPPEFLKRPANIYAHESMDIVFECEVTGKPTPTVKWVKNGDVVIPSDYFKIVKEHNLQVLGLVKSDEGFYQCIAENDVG

B1: 4Ig: four immunoglobulin-like domains of Neogenin, amino acids 1 to 383 of Accession No. AAC59662 (SEQ ID NO:1) (protein, listed as Gallus gallus)
chain: RSGPRSPLTGSVVRTFTPFYFLVEPMDILSVRGASVIMNCSSYCETPPKIEWKKDGTLLNLVSDDRRQLLPDGSLLINSVVHSKHNKPDEGYYQCVATVESLGSIVSRTAKLTVAGLPRFTSQPELSSVYKGNSAILNCEVNVDLAPFVRWEQDRQPLSLDDRVFKLPSGALLIGNATDTDGGFYRCVIESGGTPKYSEEAELKILPDPEEPQSLVFVRQPSSLTKVTGQNAVFPCVAGGFPTPYVRWTKNGEELITEDSERFALRAGGSLLISDVTEEDVGTYTCIADNENETIEAQAELAVQVPPEFLKRPANIYAHESMDIVFECEVTGKPTPTVKWVKNGDVVIPSDYFKIVKEHNLQVLGLVKSDEGFYQCIAENDVGNAQAGAQLIILDLDVAIPTLPPTSLTSATNDHLAPATTGPLPTAPRDVVATLVSTRFIRLTWRTPVSDPQGDNLTYSIFYTKEGINRERVENTSRPGETQVMIQNLMPETVYVFRVVAQNKHGHGESSAPLKVATQPEVQLPGPAPNIRAYAGSPTSVTVTWETPLSGNGEIQNYKLYYMEKGQDSEQDVDVAGLSYTITGLKKYTEYSFRVVAYNKHGPGVSTQDVVVRTLSDVPSAAPQNLTLEARNSKSIMLHWQPPPAGTHSGQITGYKIRYRKVSRKSDVTESVGGTQLFQLIEGLERGTEYNFRIAAMTVNGTGPATDWVSAETFESDLDESRVPEVPSSLHVRPLVTSIVVSWTPPENQNIVVRGYAIGYGIGSPHAQTIKVDYKQRYYTIENLDPSSHYVITLKAFNNVGEGIPLYESAVTRPHSDTSEVDLFVINAPYTPVPDPSPMMPPVGVQASILSHDTIRITWADNSLPKNQKITDARYYTVRWKTNIPANTKYKTANATTLSYLVTGLKPNTLYEFSVMVTKGRRSSTWSMTAHGTTFELVPTSPPKDVTVVSKEGKPRTIIVNWQPPSEANGKITGYIIYYSTDVNAEIHDWVIEPVVGNRLTHQIQELTLDTPYYFKIQARNSKGMGPMSEAVQFRTPKAESSDKMPNDQASGSAGKGSRPVDVGPDYKPPLSGSNSPHGSPTSPLDSNMLLVIIVSVGVITIVIVVIVAVFCTRRTTSHQKKKRAACKSVNGSHKYKGNSKDVKPPDLWIHHERLELKPIDKSPDPNPIMTDTPIPRNSQDITPVDNSMDSNIHQRRNSYRGHESEDSMSTLAGRRGMRPKMMMPFDSQPPQPVISAHPIHSLDNPHHHFHSGSLASPTRSYLHHQVSPWPVGTSMSHSDRANSTESVRNTPSSDTMPASSSQPCADHQDPDSSSGAYLGSAQEEDAAQSLPTAHVRPSHPLKSFAVPAVPAAGSAYDPTLPSTPLLTQQAPSHPVHSVKTASIGTLGRTRPPMPVVVPSAPDVQETTRMLEDSESSYEPDELTKEMAHLEGLMKDLNAITTA
modifications: Neogenin - Accession No. AAC59662

Tests used:
[1] = biological target: T1, 4Ig-domain of Neogenin (His-4Ig); assay: Pull-down assay with peptide-coated beads; assay type: binding; conditions: Western blot with anti-His
Description: (A) RGMa proteins were incubated on plates coated with 4Ig- or 6FNIII-AP. One C- and one N-RGMa domain (N-RGMa^77-113) interacted with 6FNIII. One N-RGMa domain (N-Raft) interacted with 4Ig. (B) Supernatants (Sup) from cells expressing His-6FNIII or His-4Ig, were pulled down (IP) with beads coated with N-Raft, N-RGMa^50-99, and N-inh. Western Blot was then performed with an anti-His antibody to reveal whether or not His-6FNIII or His-4Ig interacted with the coated beads. […] Data are average±SEM (n=3 independent experiments), *p<0.0001. Scale bar, 100 μm. (E) Chick brains were injected with control peptide (Ctrl; N-RGMa^50-99), 4Ig, N-Raft, or Noggin 1 day before preparing membrane fractionations. In control experiments, Neogenin localized to the Flotillin/RGMa-containing lipid raft fraction (as shown in solid lined boxes). 4Ig, N-Raft, or Noggin shifted Neogenin to heavy fractions.
Proteins were coupled to activated CNBr Sepharose beads (Pharmacia) according to supplier instructions. Supernatants from transfected cells were added to coupled beads for 2 h at room temperature (RT). Beads were then washed 6× with PBS plus 0.02% Tween 20, and SDS loading buffer was added. Samples were boiled and subjected to Western blotting.

4Ig-domain of Neogenin = biological target: T2, 4Ig-domain of Neogenin; assay: ELISA / AP binding assay of RGMa peptides to Neogenin domains; conditions: ELISA, Neogenin domains fused to AP
Description: Specifically, the 4Ig-domain and 6FNIII-domain of Neogenin were each fused to alkaline phosphatase (AP). The 4Ig-domain and 6FNIII-domain of Neogenin were found in the extracellular portion of Neogenin. Accession No. AAC59662 (SEQ ID NO:1) was the amino acid sequence of Neogenin. The 4Ig-domain was amino acids 1 to 383 of Accession No. AAC59662 (SEQ ID NO:1). The 6FNIII-domain was amino acids 429 to 1036 of Accession No. AAC59662 (SEQ ID NO:1).
The binding of these fusions to various RGMa peptides were analyzed in an ELISA assay (FIG. 2A).
To determine if distinct N-terminal regions of RGMa bound the 4Ig- and 6FNIII-domains of Neogenin, peptides were generated that spanned the N-terminal region of RGMa. The amino acid sequence of RGMa was Accession No. NP_989868.1 (SEQ ID NO:6). These peptides were a peptide spanning amino acids 28-73 of RGMa (also referred to herein as “N-Raft”) and a peptide spanning amino acids 77-113 of RGMa (also referred to herein as “N-inh”). […] In a complementary experiment, in which the N-Raft and N-inh peptides of RGMa were fused with AP instead of the 4Ig- and 6FNIII-domains of Neogenin, N-Raft bound to the 4Ig-domain and not the 6FNIII-domain while N-inh bound to the 6FNIII-domain and not the 4Ig-domain (FIG. 9). Additionally, N-inh and N-Raft coated beads pulled down 6FNIII-domain and 4Ig-domain, respectively, which was consistent with the ELISA results described above (FIG. 2B).
The assay was conducted in a 96-well microtiter plate (Corning Incorporated). The wells were coated with 100 μl (10 μg/mL) of Poly-L-Lysine at 4° C. overnight. Wells were then washed three times with 100 μl of PB ST (+0.02% Tween).
50 μl (2.5 μg/mL) of His-tagged: Full-length Neogenin; the 4Ig-domain of Neogenin; and 6FNIII-domain of Neogenin were coated onto each well for 1 hour at 37° C. Following three washes of 100 μl PBST, each well was then blocked with 300 μl of 3% BSA in PBST for 1 hour at 37° C.
50 μl (1.0 μg/mL) AP-tagged: N-RGMa (28-73); N-RGMa (28-54); N-RGMa (40-62); N-RGMa (54-73); N-RGMa (54-62) in 1% BSA+PBST was then added to each well and incubated at 37° C. for 1 hour. Each well was washed thoroughly three times with 100 μl PBST followed by subsequent equilibration of each well with Alkaline Phosphatase (AP) developing buffer (100 mM NaHCO3, 1 mM MgCl2). The reaction was developed using AP developing buffer supplemented with, p-nitrophenyl phosphate (pNPP) (Sigma-Aldrich) and allowed to develop until color development. The reaction was stopped with the addition of 50 μl (0.1M) NaOH. The absorbance of each reaction was measured using a microplate autoreader (BIO-TEK Instruments Inc.) at 405 nanometers (nm) wavelength.

EAE paralysis = assay: EAE mouse model of multiple sclerosis; assay type: in vivo; conditions: 3 μg IV at days 3, 6, 9; after 17 days; control approaching 5
Description: Specifically, whether or not 4Ig reduced paralysis in the EAE model was tested. To induce EAE, C57BL6/J mice were injected with an emulsion of MOGp35-55 peptide (50 μg, day 0) mixed with complete Freund's adjuvant (CFA). On day 2, the animals also received 400 ng of pertussis toxin (PTX) intraperitoneally in order to produce severe and reliable EAE and then were examined for clinical signs in over a 17 day period (FIG. 28).
At days 3, 6, and 9 post-EAE induction, animals were treated with either 3 μg of 4Ig in PBS (IV injection) or PBS (Control).

| Molecule | pull-down of 4Ig-domain by peptide-coated beads [1] | interaction with the 4Ig-domain of Neogenin (4Ig-domain of Neogenin) | clinical score (EAE paralysis) |
| --- | --- | --- | --- |
| N-Raft: peptide spanning amino acids 28-73 of RGMa (SEQ ID NO:2) (SPCKILKCNSEFWAATSGSHHLGAEETPEFCTALRAYAHCTRRTAR; N-Raft - amino acids 28-73 of RGMa) | pulled down | interacted |  |
| B1 |  |  | 1.4 |
